Biological target: afTMEM16 scramblase from Aspergillus fumigatus (Aspergillus fumigatus)
Assay: cryo-EM structure

afTMEM16 scramblase from Aspergillus fumigatus (natural protein)
stoichiometry N: 2

Source: doi:10.1101/420174
